Data published in patent US11814447B2, “Peptide ligands for binding to EphA2” (BICYCLERD LIMITED, priority 2018, dated 2023).
Where two headings read alike, the source gives them in different places. Blank lines part the entries; values can stand above or below the molecule they belong to. Starred links: 1 amine or outer side, 2 acyl side, 3 side chain; linkers in the order of their positions; H or OH if unused. Positions of bridges follow the written chain, without caps; N, C: chain ends. Non-standard residues stand in square brackets, D forms with d. No end group written: not given here. TATA = O=C(CC[*:1])N1CN(C(=O)CC[*:2])CN(C(=O)CC[*:3])C1; 1Nal = N[C@@H](Cc1cccc2ccccc12)C(=O)O; TBMB = c1c(C[*:1])cc(C[*:3])cc1C[*:2]; hArg = N=C(N)NCCCC[C@H](N)C(=O)O; Tle = CC(C)(C)[C@H](N)C(=O)O; AF488 = AlexaFluor488; Aib = CC(C)(N)C(=O)O; Sar = CNCC(=O)O

Tests used:
[1] = biological target: T1, Human EphA2 (Homo sapiens, UniProt P29317); assay: Fluorescence polarisation competition binding assay
T1 construct: EphA2 (Ecto); polyHis (C)
T1 sequence (P29317 24-537 limits assumed): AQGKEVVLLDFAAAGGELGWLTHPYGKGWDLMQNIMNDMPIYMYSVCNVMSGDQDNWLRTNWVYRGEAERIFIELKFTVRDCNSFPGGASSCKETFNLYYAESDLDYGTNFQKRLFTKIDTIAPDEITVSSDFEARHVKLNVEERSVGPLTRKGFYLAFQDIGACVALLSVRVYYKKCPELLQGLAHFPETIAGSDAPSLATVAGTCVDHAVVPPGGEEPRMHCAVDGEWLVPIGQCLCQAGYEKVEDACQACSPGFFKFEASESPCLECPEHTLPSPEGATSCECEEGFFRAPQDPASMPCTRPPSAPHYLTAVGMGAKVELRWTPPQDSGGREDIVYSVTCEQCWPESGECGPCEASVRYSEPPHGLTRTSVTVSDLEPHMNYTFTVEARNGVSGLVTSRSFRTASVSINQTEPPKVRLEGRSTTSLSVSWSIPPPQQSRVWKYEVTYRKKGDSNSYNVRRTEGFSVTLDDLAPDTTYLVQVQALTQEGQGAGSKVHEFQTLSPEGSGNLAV
Experimental: 1. Fluorescence Polarisation Measurements
(b) Competition Binding Assay
Peptides without a fluorescent tag were tested in competition with a peptide with a fluorescent tag and a known Kd (Table 2). Peptides were diluted to an appropriate concentration in assay buffer as described in the direct binding assay with a maximum of 5% DMSO, then serially diluted 1 in 2. […] Measurements were conducted as for the direct binding assay, however the gain was determined prior to the first measurement. Data analysis was in Systat Sigmaplot version 12.0 where the mP values were fit to a user defined cubic equation to generate a Ki value: f=y min+(y max−y min)/Lig*((Lig*((2*((Klig+Kcomp+Lig+Comp−Prot*c)^2−3*(Kcomp*(Lig−Prot*c)+Klig*(Comp−Prot*c)+Klig*Kcomp))^0.5*COS(ARCCOS((−2*(Klig+Kcomp+Lig+Comp−Prot*c)^3+9*(Klig+Kcomp+Lig+Comp−Prot*c)*(Kcomp*(Lig−Prot*c)+Klig*(Comp−Prot*c)+Klig*Kcomp)−27*(−1*Klig*Kcomp*Prot*c))/(2*(4(Klig+Kcomp+Lig+Comp−Prot*c)^2−3*(Kcomp*(Lig−Prot*c)+Klig*(Comp−Prot*c)+Klig*Kcomp))^3)^0.5)))/3))−(Klig+Kcomp+Lig+Comp−Prot*c)))/((3*Klig)+42*((Klig+Kcomp+Lig+Comp−Prot*c)^2−3*(Kcomp*(Lig−Prot*c)+Klig*(Comp−Prot*c)+Klig*Kcomp))^0.5*COS(ARCCOS((−2*(Klig+Kcomp+Lig+Comp−Prot*c)^3+9*(Klig+Kcomp+Lig+Comp−Prot*c)*(Kcomp*(Lig−Prot*c)+Klig*(Comp−Prot*c)+Klig*Kcomp)−27*(−1*Klig*Kcomp*Prot*c))/(2*(4(Klig+Kcomp+Lig+Comp−Prot*c)^2−3*(Kcomp*(Lig−Prot*c)+Klig*(Comp−Prot*c)+Klig*Kcomp))^3)^0.5)))/3))−(Klig+Kcomp+Lig+Comp−Prot*c)))).
“Lig”, “KLig” and “Prot” were all defined values relating to: fluorescent peptide concentration, the Kd of the fluorescent peptide and EphA2 concentration respectively.

[2] = biological target: T2, Mouse EphA2 (Ecto) (Mouse, UniProt Q03145 26-538); assay: FP competition; tracer Reference Compound C
T2 construct: extracellular domain; C-terminal polyHis; not shown: Fc fusion or C-terminal polyHis
T2 sequence (Q03145 26-538): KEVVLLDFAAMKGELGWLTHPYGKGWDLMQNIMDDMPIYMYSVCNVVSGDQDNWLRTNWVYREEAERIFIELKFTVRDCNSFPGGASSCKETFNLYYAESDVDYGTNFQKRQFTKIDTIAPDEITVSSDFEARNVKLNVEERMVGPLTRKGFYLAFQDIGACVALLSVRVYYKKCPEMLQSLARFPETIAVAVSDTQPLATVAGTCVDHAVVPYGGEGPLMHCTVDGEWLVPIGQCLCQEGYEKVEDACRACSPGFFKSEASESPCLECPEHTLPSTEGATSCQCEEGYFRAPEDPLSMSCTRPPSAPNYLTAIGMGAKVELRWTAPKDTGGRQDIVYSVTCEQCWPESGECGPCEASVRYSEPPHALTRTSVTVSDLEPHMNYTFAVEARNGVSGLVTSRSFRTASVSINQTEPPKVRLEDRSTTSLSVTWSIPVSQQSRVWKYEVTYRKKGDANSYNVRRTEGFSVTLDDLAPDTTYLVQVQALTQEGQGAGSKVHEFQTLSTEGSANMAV
Experimental: (§1) Peptides without a fluorescent tag were tested in competition with a peptide with a fluorescent tag and a known Kd (Table 2). Peptides were diluted to an appropriate concentration in assay buffer as described in the direct binding assay with a maximum of 5% DMSO, then serially diluted 1 in 2. […] Measurements were conducted as for the direct binding assay, however the gain was determined prior to the first measurement. Data analysis was in Systat Sigmaplot version 12.0 where the mP values were fit to a user defined cubic equation to generate a Ki value: […]

[3] = biological target: T3, Human EphA2 (Ecto) (Human, UniProt P29317 24-537); assay: FP competition; tracer Reference Compound C
T3 construct: extracellular domain; in-house)
Experimental: as §1
T3 sequence (P29317 24-537): as the sequence (P29317 24-537 limits assumed) above

[4] = biological target: T4, Human EphA2 (Ecto), C-terminal polyHis (Human, UniProt P29317 24-537); assay: fluorescence polarisation competition; competitor fluorescent Compound 12
T4 construct: extracellular domain; also called EPH receptor A2; ephrin type-A receptor 2
T4 sequence (P29317 24-537): as the sequence (P29317 24-537 limits assumed) above
Experimental: as §1

[5] = biological target: T4, Human EphA2 (Ecto), C-terminal polyHis; assay: fluorescence polarisation competition; competitor fluorescent Compound 66
Outline: (§2)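 Unlabelled peptides competed against a fluorescently tagged peptide of known Kd. Peptides were diluted in direct-binding assay buffer (≤5% DMSO) and serially diluted 1 in 2. Read as in the direct binding assay, with gain set before the first read; mP values fit to a cubic equation to give Ki.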

[6] = biological target: T4, Human EphA2 (Ecto), C-terminal polyHis; assay: fluorescence polarisation, direct binding
Experimental: Biological Data 1. […] The gain used for analysis was determined for each tracer at the end of the 60 minutes where there was no protein in the well. Data was analysed using Systat Sigmaplot version 12.0. mP values were fit to a user defined quadratic equation to generate a Kd value: f=y min+(y max−y min)/Lig*((x+Lig+Kd)/2−sqrt((((x+Lig+Kd)/2)^2)−(Lig*x))). "Lig" was a defined value of the concentration of tracer used.

[7] = biological target: T3, Human EphA2 (Ecto); assay: FP competition; tracer Reference Compound B
Experimental: as §1

[8] = biological target: T3, Human EphA2 (Ecto); assay: FP competition; tracer Reference Compound A
Experimental: as §1

[9] = biological target: T5, Human EphA2 (Ecto) (Human, UniProt P29317 24-537); assay: FP competition, tracer Compound 18
T5 construct: extracellular domain
Experimental: as §1
T5 sequence (P29317 24-537): as the sequence (P29317 24-537 limits assumed) above

[10] = biological target: T5, Human EphA2 (Ecto); assay: FP competition, tracer Compound 66
[11] = biological target: T5, Human EphA2 (Ecto); assay: FP competition, tracer Compound 18; remark: listed apart in the source
Outline: as §2

[12] = biological target: Mouse EphA2 (Ecto) (Mouse) (UniProt Q03145); assay: FP competition, tracer Compound 18
Mouse EphA2 (Ecto) (Mouse), sequence (Q03145 26-538): as the sequence (Q03145 26-538) above

[13] = biological target: Human EphA2 (Ecto) (Human) (UniProt P29317); assay: FP competition, tracer Compound 18
Human EphA2 (Ecto) (Human), sequence (P29317 24-537): as the sequence (P29317 24-537 limits assumed) above

[14] = read-out: Ki, nM ± 95% CI Human EphA2 Fluorescent peptide Compound 18, Table 9, Ala scan peptides
[15] = read-out: Ki, nM ± 95% CI, Human EphA2, competition binding assay, fluorescent peptide Compound 18, TBMB scaffold reference peptides

- Ki [2]: 75.3 nM
- Ki [3]: 10.6 nM
B1: Bicycle Compound Number 92 (TATA scaffold), Ac-CPLVNPLCLHPGWSC(HArg)GQ-Sar6-(D-K) (peptide)
peptide: CPLVNPLCLHPGWSCXGQXXXXXXK
modifications: N-terminal acetyl; X16 = HArg (homoarginine); X at 19-24 = Sar; K25 = D-Lys; 3 Cys thioether-linked to TATA scaffold

- Ki [2]: 48.2 nM
- Ki [3]: 5.41 nM
B2: Bicycle Compound Number 77 (BCY6019) (TATA scaffold), Ac-CPLVNPLCLHPGWTCLHG-Sar6-(D-K) (peptide)
peptide: CPLVNPLCLHPGWTCLHGXXXXXXK
modifications: N-terminal acetyl; X at 19-24 = Sar; K25 = D-Lys; 3 Cys thioether-linked to TATA scaffold

- Ki [4]: 410 nM
- Ki [5]: 63.4 nM
Molecule: ACTTGSIWCALQFEPCA (linker 2-9-16 via TBMB (inferred), also called Compound 64) [Bicycle Compound Number 64 (TBMB scaffold)]

- Ki [2]: 166 nM
- Ki [3]: 19.3 nM
B3: Bicycle Compound Number 68 (TATA scaffold), Ac-ARDCPLVNPLCLHPGWTCA-Sar6-(D-K) (peptide)
peptide: ARDCPLVNPLCLHPGWTCAXXXXXXK
modifications: N-terminal acetyl; X at 20-25 = Sar (sarcosine); K26 = D-Lys; 3 Cys thioether-linked to TATA scaffold

- Ki [2]: 49.9 nM
- Ki [3]: 5.98 nM
B5: Bicycle Compound Number 91 (BCY6042) (TATA scaffold), Ac-CPLVNPLCLHPGWSCRGQ-Sar6-(D-K) (peptide)
peptide: CPLVNPLCLHPGWSCRGQXXXXXXK
modifications: N-terminal acetyl; X at 19-24 = Sar; K25 = D-Lys; 3 Cys thioether-linked to TATA scaffold

- Ki [2]: 57.6 nM
- Ki [3]: 4.94 nM
Molecule: XXXXXXXXXXXARDCPLVNPLCLHPGWTC (N-terminal (β-Ala)-Sar10; 3 Cys thioether-linked to TATA scaffold) [Bicycle Compound Number 66 (BCY6099) (TATA scaffold), (β-Ala)-Sar10-ARDCPLVNPLCLHPGWTC]

- Ki [2]: 39.1 nM
- Ki [3]: 6.05 nM
Molecule: ARDCPLVNPLCLHPGWTCA (linker 4-11-18 via TATA) [Bicycle Compound Number 65 (TATA scaffold), ARDCPLVNPLCLHPGWTCA]

- Ki [4]: 99.2 nM
- Ki [5]: 117 nM
Molecule: ACPWGPAWCPVNRPGCAGAAA (linker 2-9-16 via TBMB (inferred), also called Compound 45) [Bicycle Compound Number 45 (TBMB scaffold)]

- Ki [2]: 18.6 nM
- Ki [3]: 2.57 nM
Molecule: ACPLVNPLCLHPGWSCRGQ (linker 2-9-16 via TATA) [Bicycle Compound Number 87 (BCY6026) (TATA scaffold), ACPLVNPLCLHPGWSCRGQ]

- Ki [2]: 115 nM
- Ki [3]: 15.6 nM
B6: Bicycle Compound Number 78 (TATA scaffold), Ac-CPLVNPLCLHPGWTCL(D-His)G-Sar6-(D-K) (peptide)
peptide: CPLVNPLCLHPGWTCLHGXXXXXXK
modifications: N-terminal acetyl; H17 = D-His; X at 19-24 = Sar; K25 = D-Lys; 3 Cys thioether-linked to TATA scaffold

- Ki [2]: 29.6 nM
- Ki [3]: 2.86 nM
Molecule: XXXXXXXXXXXACPLVNPLCLHPGWSCRGQ (N-terminal (β-Ala)-Sar10; 3 Cys thioether-linked to TATA scaffold) [Bicycle Compound Number 89 (TATA scaffold), (β-Ala)-Sar10-ACPLVNPLCLHPGWSCRGQ]

- Ki [2]: 7.27 nM
Molecule: ACPLVNPLCLHPGWTCLHG (linker 2-9-16 via TATA) [Bicycle Compound Number 73 (TATA scaffold), ACPLVNPLCLHPGWTCLHG]

- Ki [2]: 75.2 nM
- Ki [3]: 10 nM
B7: Bicycle Compound Number 76 (TATA scaffold), (β-Ala)-Sar10-ACPLVNPLCLHPGWTCL(D-His)G (peptide)
peptide: XXXXXXXXXXXACPLVNPLCLHPGWTCLHG
modifications: X1 = β-Ala; X at 2-11 = Sar; H29 = D-His; 3 Cys thioether-linked to TATA scaffold

Continued, molecule first:

Molecule: ADVHCPWGPFWC[dA]VNRPGCA (cysteine pairing not given here) [Compound 154]
- Ki [1, 14]: 101 nM
- Ki [1, 15]: 101 nM

Molecule: ADVHCPWGPFWCPV[dA]RPGCA (cysteine pairing not given here) [Compound 155]
- Ki [1, 14]: 2 nM
- Ki [1, 15]: 2 nM

Molecule: AF488-G[Sar][Sar][Sar][Sar][Sar][Sar][Sar][Sar][Sar][Sar]ACMNDWLCSLGWTC (linker 13-19-25 via TBMB) [Bicycle Compound Number 2 (TBMB scaffold)]
- Kd [6]: 326 nM

B4: Bicycle Compound Number 14 (TBMB scaffold) (peptide)
peptide: GXXXXXXXXXXACPWGPAWCPVNRPGCA
modifications: N-terminal AF488 (AlexaFluor488); Sar10; 3 Cys thioether-linked to TBMB scaffold
- Kd [6]: 38 nM

Molecule: ACQPSNHCAFMNYCA (linker 2-8-14 via TATA) [Bicycle Compound Number 30 (TATA scaffold), ACQPSNHCAFMNYCA]
- Ki [7]: 187 nM
- Ki [8]: 137 nM

Molecule: [Sar][Sar]ACPWGPFWCPV[dA]RPGC (linker 4-11-18 via TBMB) [Bicycle Compound 102]
- Ki [9]: 317 nM
- Ki [10]: 312 nM

Molecule: ADVHCPWGAFWCPVNRPGCA (linker 5-12-19 via TBMB) [Bicycle Compound 152]
- Ki [11]: 1.8 nM
- Ki [9]: 1.8 nM

Molecule: ADVHCPWGPFWCPV[dA]RPGCA (linker 5-12-19 via TBMB) [Bicycle Compound 155]
- Ki [11]: 2 nM
- Ki [9]: 2 nM

Molecule: ADVHCPWGPFWCPVN[dA]PGCA (linker 5-12-19 via TBMB) [Bicycle Compound 156]
- Ki [11]: 14.9 nM
- Ki [9]: 14.9 nM

Molecule: ACTSCWAYPDSFCA (linker 2-5-13 via TATA) [Bicycle Compound Number 32 (TATA scaffold), ACTSCWAYPDSFCA]
- Ki [8]: 151 nM
- Ki [3]: 232 nM

Molecule: [Sar][Sar]ACPWGPFWCPVNRAGC (linker 4-11-18 via TBMB) [Bicycle Compound 104]
- Ki [9]: 124 nM
- Ki [10]: 194 nM

Molecule: ACYVGKECAYMNVCA (linker 2-8-14 via TATA) [Bicycle Compound Number 29 (TATA scaffold), ACYVGKECAYMNVCA]
- Ki [7]: 107 nM
- Ki [8]: 87.7 nM
- Ki [3]: 210 nM

Molecule: Ac-[Sar][Sar]H[dD]VPCP[1Nal]G[Aib]F[1Nal]CP[Tle]N[hArg]P[dD]C (linker 7-14-21 via TBMB) [Bicycle Compound 254]
- Ki [12]: 0.64 nM
- Ki [13]: 0.74 nM

Molecule: ACSPTPACAVQNLCA (linker 2-8-14 via TATA) [Bicycle Compound Number 31 (TATA scaffold), ACSPTPACAVQNLCA]
- Ki [7]: 177 nM
- Ki [3]: 223 nM

Molecule: [Sar][Sar]ACPWGPFWCPVNRP[dA]C (linker 4-11-18 via TBMB) [Bicycle Compound 112]
- Ki [9]: 89 nM
- Ki [10]: 110 nM

Molecule: [Sar][Sar]ACPWGAFWCPVNRPGC (linker 4-11-18 via TBMB) [Bicycle Compound 289]
- Ki [9]: > 1000 nM
- Ki [10]: 1100 nM

Molecule: [Sar][Sar]ACPWGPFWCPVNRPAC (linker 4-11-18 via TBMB) [Bicycle Compound 111]
- Ki [9]: 108 nM
- Ki [10]: 238 nM

Molecule: [Sar][Sar]ACPWGPAWCPVNRPGC (linker 4-11-18 via TBMB) [Bicycle Compound 83]
- Ki [9]: 199 nM
- Ki [10]: 288 nM

Molecule: [Sar][Sar]ACPWGPFWCPVN[dA]PGC (linker 4-11-18 via TBMB) [Bicycle Compound 302]
- Ki [9]: > 1000 nM
- Ki [10]: 1410 nM

Molecule: [Sar][Sar]ACPWGPFWCPVNR[dA]GC (linker 4-11-18 via TBMB) [Bicycle Compound 105]
- Ki [9]: 677 nM
- Ki [10]: 471 nM
